Data as given in publication PMC6591005.

Molecular target: GII.4.2002 P domain (human norovirus GII.4 2002 (Farmington Hills))
Test: crystal structure

In the case of “GII.4.2002 P domain (domain or fragment)”, the stoichiometry N was 2.
